System: TRMT10C (MRPP1, RG9MTD1) (Homo sapiens)
Experiment: EMSA
Conditions: apparent Kd; EMSA: 1 nM 5'-labelled pre-tRNA, 10 nM-1.2 uM protein, methylation/processing buffer (composition not in material) + 100 mM sucrose, 30 min at room …

Substance	Kd [nM]
(mt)pre-tRNAHis	203
(mt)pre-tRNAIle	255

From PMC3526285
